Data on three molecules can be found in PMC5940772 (Nature Communications, 2018).

For data set [1], the target named is His-tagged TRIM25-CC (coiled-coil domain of TRIM25, 189-379) (human, UniProt Q14258 189-379). The data set is described as follows: BLI; […] (~12 ug/ml); […]; 25 °C; 50 mM HEPES pH 7.5, 150 mM NaCl, 1 mM DTT, 0.005% Tween-20; […]. The following applies: both partners purified.
The data set “SEC + SEC-MALS” deals with the molecule itself. The experiment in a line: SEC + SEC-MALS. For orientation: In gel filtration, larger molecules generally elute earlier.
The data set “crystal structure” concerns the molecule itself. The data set is described as follows: crystal structure.

B1: NS1-ED (effector domain of NS1, 79-230) (domain or fragment)
chain: MTMASVPASRYLTDMTLEEMSRDWSMLIPKQKVAGPLCIRMDQAIMDKNIILKANFSVIFDRLETLILLRAFTEEGAIVGEISPLPSLPGHTAEDVKNAVGVLIGGLEWNDNTVRVSETLQRFAWRSSNENGRPPLTPKQKREMAGTIRSEV
By Kd is commonly meant the equilibrium constant for the complex coming apart. Read a high Kd as lower affinity. For B1, in data set [1], the Kd came to 16.1 µM.

B2: Human TRIM25 CC-PRYSPRY domain (residues 189-630) (domain or fragment)
chain: ASLSQASADLEATLRHKLTVMYSQINGASRALDDVRNRQQDVRMTANRKVEQLQQEYTEMKALLDASETTSTRKIKEEEKRVNSKFDTIYQILLKKKSEIQTLKEEIEQSLTKRDEFEFLEKASKLRGISTKPVYIPEVELNHKLIKGIHQSTIDLKNELKQCIGRLQEPTPSSGDPGEHDPASTHKSTRPVKKVSKEEKKSKKPPPVPALPSKLPTFGAPEQLVDLKQAGLEAAAKATSSHPNSTSLKAKVLETFLAKSRPELLEYYIKVILDYNTAHNKVALSECYTVASVAEMPQNYRPHPQRFTYCSQVLGLHCYKKGIHYWEVELQKNNFCGVGICYGSMNRQGPESRLGRNSASWCVEWFNTKISAWHNNVEKTLPSTKATRVGVLLNCDHGFVIFFAVADKVHLMYKFRVDFTEALYPAFWVFSAGATLSICSPK
notes: also called TRIM25 coiled-coil-PRY-SPRY
As usually defined, the stoichiometry N is the number of molecules, sites or subunits per partner or assembly. On to B2, for which the “stoichiometry N” value in “SEC + SEC-MALS” stood at 2.

B3: TRIM25-CC (coiled-coil domain of TRIM25, 189-379), tag removed (domain or fragment)
chain: ASLSQASADLEATLRHKLTVMYSQINGASRALDDVRNRQQDVRMTANRKVEQLQQEYTEMKALLDASETTSTRKIKEEEKRVNSKFDTIYQILLKKKSEIQTLKEEIEQSLTKRDEFEFLEKASKLRGISTKPVYIPEVELNHKLIKGIHQSTIDLKNELKQCIGRLQEPTPSSGDPGEHDPASTHKSTRP
In the case of B3, in the data set “crystal structure”, the binding result is on record as “binds”.
